Here are results for 1 molecule from PMC11230231 (bioRxiv, 2024).

In the experiment the target is integrin α5β1 on cells (human (endogenous in K562 and MCF10A), UniProt P08648;P05556). Briefly: flow cytometry on cells.
Chain of integrin α5β1 on cells (P08648 42-1049, chain 1 of 2): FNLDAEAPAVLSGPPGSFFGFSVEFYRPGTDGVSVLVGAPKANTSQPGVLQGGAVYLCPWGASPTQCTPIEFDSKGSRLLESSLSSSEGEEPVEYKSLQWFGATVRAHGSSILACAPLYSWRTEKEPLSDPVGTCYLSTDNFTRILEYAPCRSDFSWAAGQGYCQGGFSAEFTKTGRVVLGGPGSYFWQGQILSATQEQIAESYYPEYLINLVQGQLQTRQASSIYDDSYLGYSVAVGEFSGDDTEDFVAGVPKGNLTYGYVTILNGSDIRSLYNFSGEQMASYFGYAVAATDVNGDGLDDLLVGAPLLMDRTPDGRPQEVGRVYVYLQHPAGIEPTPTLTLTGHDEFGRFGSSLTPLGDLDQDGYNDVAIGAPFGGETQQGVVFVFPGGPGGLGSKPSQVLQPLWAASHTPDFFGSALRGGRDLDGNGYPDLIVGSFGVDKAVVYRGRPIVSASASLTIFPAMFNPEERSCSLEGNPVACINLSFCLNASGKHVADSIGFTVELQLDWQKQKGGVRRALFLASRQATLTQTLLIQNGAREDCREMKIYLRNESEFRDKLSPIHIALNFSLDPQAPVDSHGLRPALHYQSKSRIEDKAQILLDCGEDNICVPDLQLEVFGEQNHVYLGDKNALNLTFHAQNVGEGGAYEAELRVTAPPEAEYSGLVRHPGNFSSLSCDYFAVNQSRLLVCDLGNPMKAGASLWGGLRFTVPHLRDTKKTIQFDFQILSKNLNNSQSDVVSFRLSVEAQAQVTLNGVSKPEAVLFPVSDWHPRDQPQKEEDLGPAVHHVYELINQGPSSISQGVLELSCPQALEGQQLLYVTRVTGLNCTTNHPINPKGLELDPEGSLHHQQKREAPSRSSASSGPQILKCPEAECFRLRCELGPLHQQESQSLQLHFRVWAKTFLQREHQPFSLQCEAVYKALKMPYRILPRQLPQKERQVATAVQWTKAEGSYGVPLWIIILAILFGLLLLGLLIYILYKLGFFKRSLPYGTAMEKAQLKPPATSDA
Chain of integrin α5β1 on cells (P05556 21-798, chain 2 of 2): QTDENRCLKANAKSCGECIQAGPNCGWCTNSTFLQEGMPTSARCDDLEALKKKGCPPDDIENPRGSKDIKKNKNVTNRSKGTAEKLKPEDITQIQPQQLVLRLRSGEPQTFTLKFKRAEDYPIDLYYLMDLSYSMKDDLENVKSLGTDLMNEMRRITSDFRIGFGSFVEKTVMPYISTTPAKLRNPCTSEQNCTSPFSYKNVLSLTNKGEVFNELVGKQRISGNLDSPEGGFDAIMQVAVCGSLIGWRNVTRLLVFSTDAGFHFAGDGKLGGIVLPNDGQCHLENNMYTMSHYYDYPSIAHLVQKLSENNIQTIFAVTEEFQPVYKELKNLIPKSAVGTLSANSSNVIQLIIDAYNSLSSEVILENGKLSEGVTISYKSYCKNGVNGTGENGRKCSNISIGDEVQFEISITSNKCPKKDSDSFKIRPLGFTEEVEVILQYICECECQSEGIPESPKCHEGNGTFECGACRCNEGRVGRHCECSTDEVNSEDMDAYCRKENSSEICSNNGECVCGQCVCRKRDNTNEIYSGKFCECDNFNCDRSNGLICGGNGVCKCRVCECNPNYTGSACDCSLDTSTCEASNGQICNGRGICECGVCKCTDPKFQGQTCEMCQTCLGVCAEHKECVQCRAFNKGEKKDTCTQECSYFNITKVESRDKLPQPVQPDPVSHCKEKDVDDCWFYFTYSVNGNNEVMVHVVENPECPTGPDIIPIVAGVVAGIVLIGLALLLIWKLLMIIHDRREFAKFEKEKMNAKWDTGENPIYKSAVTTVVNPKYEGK

B1: RGD peptide (GRRGDGATGH) (peptide)
peptide: GRRGDGATGH
For B1, the Kd – broadly, the equilibrium constant for the complex coming apart – is 150 ± 20 µM.
